This is an account of results in patent US20130202591A1 (ANAPTYSBIO, published 2013).

Positions count from the first letter of the chain named.

B1: APE498-1330/773 (antibody, V domains shown)
VH: EVQLVESGGGLVQPGGSLRLSCAASGFTFSNHWMNWVRQTPGKGLEWVAAINEDGSEKYYVGSVKVRFTISRDNAKNSLYLQMNSLRVEDTAVYYCTRDYYDILTDYYIHYWYFDLWGRGTLVTVSS
VL: not shown
notes: Human IgG (detected with anti-human IgG)
B2: APE480-1261/773 (antibody, V domains shown)
VH: B1 VH with N31D, H32F, N35D, A50S, N52K, G62D, V88A, T97A
VL: not shown
notes: as for B1
B3: APE467-1138/773 (antibody, V domains shown)
VH: B1 VH with N31S, N35S, A50S, N52K, G62D, V88A, T97A
VL: not shown
notes: as for B1
B4: APE470-1150/773 (antibody, V domains shown)
VH: B1 VH with N31D, H32F, N35D, T40A, A50N, N52K, G62D, V66G, V88A, T97A
VL: not shown
notes: as for B1
B5: APE318-878/773 (antibody, V domains shown)
VH: B1 VH with N31D, H32Y, N35D, T40A, A50N, N52R, G62D, V66G, V88A, T97A
VL: not shown
notes: as for B1
B6: APE320-847/773 (antibody, V domains shown)
VH: B1 VH with N31S, N35S, T40A, A50S, N52K, G62D, V66G, V88A, T97A
VL: not shown
notes: as for B1
B7: APE253-771/773 (antibody, V domains shown)
VH: B1 VH with N31S, N35S, T40A, A50N, N52K, G62D, V66G, V88A, T97A
VL: not shown
notes: Human IgG; also called Well 10
B8: APE319-887/773 (antibody, V domains shown)
VH: B1 VH with N31D, H32Y, N35D, T40A, A50S, N52R, G62D, V66G, V88A, T97A
VL: not shown
notes: as for B1
B9: APE545-1346/773 (antibody, V domains shown)
VH: B1 VH with N31S, N35S, A50S, N52K, T69I, T97A
VL: not shown
notes: as for B1
B10: APE860-1723/773 (antibody, V domains shown)
VH: B1 VH with S30N, T97V
VL: not shown
notes: as for B1
B11: APE490-1263/773 (antibody, V domains shown)
VH: B1 VH with N31D, H32F, N35D, A50S, N52K, T97A
VL: not shown
notes: as for B1
B12: APE744-1266/1540 (antibody, V domains shown)
VH: B1 VH with T97V
VL: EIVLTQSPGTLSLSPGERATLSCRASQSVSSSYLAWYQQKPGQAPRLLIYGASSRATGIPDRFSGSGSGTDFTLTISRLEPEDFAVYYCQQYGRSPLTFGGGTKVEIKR
notes: as for B1
B13: APE499-1332/773 (antibody, V domains shown)
VH: B1 VH with T69I, T97A
VL: not shown
notes: as for B1
B14: APE857-1622/773 (antibody, V domains shown)
VH: EVQLVESGGGLVQPGGSLRLSCAASGFTFSNHWMNWVRQTPGKGLEWVAAINEDGSEKYYVGSVKVRFTISRDNAKNSLYLQMNSLRVEDTAVYYCVRDYYDILTRDYYDILTDYYIHYWYFDLWGRGTLVTVSS
VL: not shown
notes: as for B1
B15: 1144/773 (antibody, V domains shown)
VH: B1 VH with T40A, A50S, N52R, G62D, V66G, V88A, T97A
VL: not shown
notes: Captured by anti-human Fc
B16: 887/841 (antibody, V domains shown)
VH: B1 VH with N31D, H32Y, N35D, T40A, A50S, N52R, G62D, V66G, V88A, T97A
VL: DIQMTQSPSSLSASVGDRVTITCRASQSISSYLNWYQQKPGKAPKLLIYAASSLQSGVPSRFSGSGSGTDFTLTISSLQPEDFAVYYCQQYGSSPLTFGGGTKVEIKR
notes: Captured by anti-human Fc
B17: MP4-23 (antibody, V domains shown)
VH: B1 VH with N31S, H32Y, T40A, N52K, E53Q, V66G, V88A, T97V
VL: not shown
notes: Captured by anti-human Fc
B18: MP4-6 (antibody, V domains shown)
VH: B1 VH with N31S, H32Y, N35S, T40A, A50N, E53Q, V66G, V88A, T97V
VL: not shown
notes: Captured by anti-human Fc
B19: MP4-5 (antibody, V domains shown)
VH: B1 VH with H32Y, T40A, N52K, E53Q, V66G, V88A, T97V
VL: not shown
notes: Captured by anti-human Fc
B20: MP4-14 (antibody, V domains shown)
VH: B1 VH with N31S, H32Y, N35S, T40A, E53Q, G62D, V66G, V88A, T97A
VL: not shown
notes: Captured by anti-human Fc
B21: MP4-7 (antibody, V domains shown)
VH: B1 VH with H32Y, N35S, T40A, A50N, E53Q, V66G, V88A, T97V
VL: not shown
notes: Captured by anti-human Fc
B22: 878/842 (antibody, V domains shown)
VH: B1 VH with N31D, H32Y, N35D, T40A, A50N, N52R, G62D, V66G, V88A, T97A
VL: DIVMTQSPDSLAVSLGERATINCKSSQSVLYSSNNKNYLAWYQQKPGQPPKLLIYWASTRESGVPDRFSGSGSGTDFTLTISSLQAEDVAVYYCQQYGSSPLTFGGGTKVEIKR
notes: Captured by anti-human Fc
B23: MP4-22 (antibody, V domains shown)
VH: B1 VH with H32Y, N35S, T40A, N52K, E53Q, G62D, V66G, V88A, T97V
VL: not shown
notes: Captured by anti-human Fc
B24: 1146/773 (antibody, V domains shown)
VH: B1 VH with H32Y, N35D, T40A, A50S, N52R, V66G, T97V
VL: not shown
notes: Captured by anti-human Fc
B25: MP4-21 (antibody, V domains shown)
VH: B1 VH with H32Y, T40A, A50N, E53Q, V66G, V88A, T97A
VL: not shown
notes: Captured by anti-human Fc
B26: MP4-17 (antibody, V domains shown)
VH: B1 VH with H32Y, N35S, T40A, A50N, N52K, E53Q, G62D, V66G, V88A, T97A
VL: not shown
notes: Captured by anti-human Fc
B27: MP4-8 (antibody, V domains shown)
VH: B1 VH with H32Y, N35S, T40A, A50N, E53Q, G62D, V66G, V88A, T97V
VL: not shown
notes: Captured by anti-human Fc
B28: MP4-2 (antibody, V domains shown)
VH: B1 VH with N31S, H32Y, N35S, T40A, E53Q, V66G, V88A, T97V
VL: not shown
notes: Captured by anti-human Fc
B29: MP4-4 (antibody, V domains shown)
VH: B1 VH with H32Y, T40A, N52K, E53Q, V66G, V88A, T97A
VL: not shown
notes: Captured by anti-human Fc
B30: 847/842 (antibody, V domains shown)
VH: B1 VH with N31S, N35S, T40A, A50S, N52K, G62D, V66G, V88A, T97A
VL: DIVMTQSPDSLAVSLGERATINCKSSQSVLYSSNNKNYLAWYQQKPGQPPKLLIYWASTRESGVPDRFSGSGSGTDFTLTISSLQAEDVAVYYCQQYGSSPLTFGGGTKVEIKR
notes: Captured by anti-human Fc
B31: 1147/773 (antibody, V domains shown)
VH: B1 VH with N31S, H32Y, N35D, T40A, A50S, N52R, G62D, V66G, V88A, T97A
VL: not shown
notes: Captured by anti-human Fc
B32: MP4-16 (antibody, V domains shown)
VH: B1 VH with H32Y, N35S, T40A, E53Q, V66G, V88A, T97A
VL: not shown
notes: Captured by anti-human Fc
B33: MP4-20 (antibody, V domains shown)
VH: B1 VH with H32Y, N35S, T40A, N52K, E53Q, V66G, V88A, T97A
VL: not shown
notes: Captured by anti-human Fc
B34: MP4-11 (antibody, V domains shown)
VH: B1 VH with H32Y, N35S, T40A, A50N, N52K, E53Q, G62D, V66G, V88A, T97V
VL: not shown
notes: Captured by anti-human Fc
B35: MP4-10 (antibody, V domains shown)
VH: B1 VH with H32Y, N35S, T40A, N52K, E53Q, V66G, V88A, T97V
VL: not shown
notes: Captured by anti-human Fc
B36: 1153/773 (antibody, V domains shown)
VH: B1 VH with N31S, N35S, T40A, A50S, N52K, G62D, V88A, T97A
VL: not shown
notes: Captured by anti-human Fc
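Throughout, for result: antigen injected at two-fold dilutions from 50 nM over captured antibody at 30 µL/min, dissociation followed for 10 min, kinetics fitted with a 1:1 mass-transport model.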

T1 sequence (Q16552 24-155 limits assumed): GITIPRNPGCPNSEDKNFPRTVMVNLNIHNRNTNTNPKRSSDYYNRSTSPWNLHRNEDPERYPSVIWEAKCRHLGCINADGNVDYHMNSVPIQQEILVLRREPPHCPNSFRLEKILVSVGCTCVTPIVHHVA

The first assay has as its target T1, human IL-17 (human, UniProt Q16552 24-155).
T1 construct: also called hIL-17; IL-17A
As to the kind of experiment: KINEXA 3000, solution equilibrium, free antibody captured on human IL-17a beads.
Procedure: KINEXA® technology measures the unbound/free receptor molecule in solution phase. Measuring binding events in the solution phase with micro beads for maximized surface area avoids mass transport limitations and mobility effects inherent to methods that measure binding to a solid phase. […] Antibody-antigen solution was then flown over antigen-coupled beads at a rate of 0.25 mL/min. […] In order to achieve the most accurate measurement for each antibody, each “Kd controlled curve” (wherein the antibody concentration is below the Kd) was combined with the “receptor controlled curve” (where antibody concentration is well above the Kd) in N-curve analysis.
One may read the Kd as the equilibrium constant for the complex coming apart. B1: the Kd stood at 126 pM.

B2 gave a Kd of 1200 pM. The molecule B3 had a Kd of 374 pM. In the case of B4, the Kd is 6900 pM. B5 gave a Kd of 14200 pM. As to B6, the affinity, expressed as Kd, was 2500 pM. Compared with the last molecule, the Kd is about 5.7-fold lower.

With B7, the Kd is about 60000 pM.

On to B8, for which the affinity, expressed as Kd, was 6100 pM. This counts as single-digit nanomolar.

The molecule B9 gave a Kd of 270 pM. On the same count and under the same terms, then B10, with 49 pM; and B11, with 948 pM; and B12, with 875 pM.

B13 came in with a Kd of 92 pM. Consider B14, for which the Kd was determined as 4.8 pM.

A further assay has as its target T1, human IL-17. As to the kind of experiment: SPR (BIACORE), antibody captured by anti-human Fc, antigen in flow; grade: ++ strong binding, + binding, +/- close to background. (In general: SPR reads the build-up and loss of mass on a sensor chip optically.)
Source text: BIACORE T100™ is used to determine antibody-antigen binding kinetics and affinity. The technology is based on surface plasmon resonance (SPR), an optical phenomenon that enables detection of label-free interactions in real time within a dextran biosensor matrix. It is therefore suited for measuring rate constants of association (kₒₙ) as well as dissociation (koff). All reagents and materials were purchased from GE Healthcare (Buckinghamshire, United Kingdom). […] 1×HBS-EP+ buffer (of 0.01M HEPES, 0.15M NaCl, 3 mM EDTA, 0.05% Polysorbate, pH 7.6) was used to reconstitute antigen at various concentrations (starting at 50 nM and using two-fold serial dilutions for each concentration). 210 μL of each antigen concentration was injected over captured antibody at a flow rate of 30 μL/min, then allowed to dissociate for 10 minutes. Surface was regenerated with 60 μL of 3M MgCl₂ after each cycle to establish baseline. Association and dissociation kinetic constants (kₐ and kd) were evaluated with “1:1 with mass transport” binding model in the BIACORE™ T100 Evaluation Software. The degree of binding for the BIACORE™ assay was measured as “++” (strong binding), “+” (binding), or “+/−” (close to background).
For B15, the binding result is reported as “binds”. Same read-out and setting: then B16, with “binds”. B17: the binding result is “binds”. On the same count and under the same terms, then B18, with “binds”. Turning to B19, the binding result was “binds”. Take B20: the binding result was “binds”. Still for that read-out and setting: then B21, with “binds”. As for B22, the binding result is “binds”. The same measure, in the same setting: then B23, with “binds”; and B24, with “binds”; and B25, with “binds”.

With B26, the binding result was “binds”.

With B27, the binding result was “binds”. In the case of B28, the binding result is given as “binds”. With B29, the binding result was “binds”. For B30, the binding result was “binds”. Same read-out and setting: then B31, with “binds”. As to B32, the binding result is given as “binds”. As to B33, the binding result is “binds”. The same measure, in the same setting: the entry for B34 is “binds”; for B35 it is “binds”; for B36 it is “binds”.
